The subject of assay [1] is autophosphorylation (phosphotyrosine). Put plainly: In vitro kinase library screen: autophosphorylation. The assay is classed as biochemical. On the procedure:
Proteins were produced from DNA plasmids of Mock Luciferase, Promega, tyrosine kinase clone Spleen Tyrosine kinase (SYK, IMAGE ID# 3870426) and Eph receptor-A7 (EphA7, IMAGE ID# 3991628) (Incyte Genomics, CA) and immobilized on streptavidin or avidin coated NPT-IPR plates as described in the Example 7. To promote autophosphorylation in these immobilized and purified proteins, Mn++ ions were added in a 50 μl reaction containing 5 mM MgCl2, 5 mM MnCl2, 100 μM ATP, 25 mM Tris-HCl buffer pH 7.4, 0.05 mM Na3VO4, 0.004% TritonX-100, 2 mM DTT and EDTA-free protease inhibitor (Roche Molecular Biochemicals). This mixture was incubated with shaking at room temperature overnight to allow autophosphorylation. Following this incubation, wells were washed 2 times with TT-buffer and 2 times with water. Following this step, 50 ng Sulfo-TAG labeled anti-phosphotyrosine in buffer containing 25 mM Tris-HCl buffer pH 7.4, 5 mM MgCl2, 0.05 mM Na3VO4, 0.004% TritonX-100, 2 mM DTT and 0.05% IgG in a final volume of 50 μl was added followed by incubation at room temperature for 45 min. The unbound reagents were removed by one time washing with water, and the TAG label was detected in presence of 150 μl IPR assay buffer (0.4 mM Gly—Gly buffer, pH 7.8, 1 mM EDTA, 0.1 M TPA). The ECL signals were measured using an imaging plate reader.
(§1) Proteins were produced in an in vitro transcription and translation reaction as described in the Materials and Methods. […] The reaction was stopped by mixing with BB2 buffer. Biotinylated proteins from 50 μl of the mixture (representing 0.5 μl to 5 μl of TnT reaction) were immobilized onto streptavidin or avidin coated NPT-IPR plates by shaking at room temperature for 45 min. The activity of the immobilized protein towards pEY or autophosphorylation was further assayed by the methods described in examples 7 and 8.

A further assay concerns pEY. Kind of assay: In vitro kinase library screen: activity towards pEY. The class given is biochemical. To be noted: 5 ul of expressed protein. Here is the method:
Proteins were produced in an in vitro transcription and translation reaction. […] The unbound components of the reaction containing endogenous kinases were removed by three washes with TT-buffer (25 mM Tris-HCl buffer pH 7.4 and 0.004% Triton), two five minutes washings with high-salt wash buffer (25 mM Tris-HCl buffer pH 7.4, 0.004% Triton, 1M NaCl and 5 mM DTT) and 3 more washes with TT-buffer. To these immobilized and purified proteins a tyrosine kinase substrate, 5 nM pEY (poly Glu-Tyr, Sigma, MO), was added in a 50 μl reaction solution containing 5 mM MgCl2, 5 mM MnCl2, 100 μM ATP, 25 mM Tris-HCl buffer pH 7.4, 0.05 mM Na3VO4, 0.004% TritonX-100, 2 mM DTT and EDTA-free protease inhibitor (Roche Molecular Biochemicals). This mixture was incubated with shaking at room temperature overnight to allow phosphorylation of the pEY substrate by the immobilized kinases. Following this incubation, 45 μl of this mixture was transferred to a streptavidin or avidin-coated NPT IPR plate coated with biotinylated anti-phosphotyrosine antibody (PY20, Zymed labs, CA) followed by incubation for 30 minutes at room temperature to allow the binding of the phosphorylated pEY substrate to the PY20 coated NPT plate. Following this binding step, 50 ng Sulfo-TAG labeled anti-phosphotyrosine in buffer containing 25 mM Tris-HCl buffer pH 7.4, 5 mM MgCl2, 0.05 mM Na3VO4, 0.004% TritonX-100, 2 mM DTT and 0.05% IgG was added followed by incubation at room temperature for 30 mm. The unbound reagents were removed by one time washing with water, and the TAG label was detected in presence of 150 μl IPR assay buffer (0.4 mM Gly-Gly buffer, pH 7.8, 1 mM EDTA, 0.1 M TPA). The ECL signals were measured using an imaging plate reader.
as §1

B1: 3673003: IMAGE clone protein: Ephb3, Eph receptor B3 (protein, UniProt P54754 30-993, looked up)
Ephrin type-B receptor 3: LEETLMDTKWVTSELAWTSHPESGWEEVSGYDEAMNPIRTYQVCNVRESSQNNWLRTGFIWRREVQRVYVELKFTVRDCNSIPNIPGSCKETFNLFYYEADSDVASASSPFWMENPYVKVDTIAPDESFSRLDAGRVNTKVRSFGPLSKAGFYLAFQDQGACMSLISVRAFYKKCASTTAGFALFPETLTGAEPTSLVIAPGTCIANAVEVSVPLKLYCNGDGEWMVPVGACTCATGHEPAAKESQCRACPPGSYKAKQGEGPCLPCPPNSRTTSPAASICTCHNNFYRADSDSADSACTTVPSPPRGVISNVNETSLILEWSEPRDLGGRDDLLYNVICKKCRGSSGAGGPATCSRCDDNVEFVPRQLGLTERRVHISHLLAHTRYTFEVQAVNGVSGKSPLPPRYAAVNITTNQAAPSEVPTLHLHSSSGSSLTLSWAPPERPNGVILDYEMKYFEKSKGIASTVTSQKNSVQLDGLQPDARYVVQVRARTVAGYGQYSHPAEFETTSERGSGAQQLQEQLPLIVGSTVAGFVFMVVVVVIALVCLRKQRHGPDAEYTEKLQQYIAPGMKVYIDPFTYEDPNEAVREFAKEIDVSCVKIEEVIGAGEFGEVCRGRLKLPGRREVFVAIKTLKVGYTERQRRDFLSEASIMGQFDHPNIIRLEGVVTKSRPVMILTEFMENCALDSFLRLNDGQFTVIQLVGMLRGIAAGMKYLSEMNYVHRDLAARNILVNSNLVCKVSDFGLSRFLEDDPSDPTYTSSLGGKIPIRWTAPEAIAYRKFTSASDVWSYGIVMWEVMSYGERPYWDMSNQDVINAVEQDYRLPPPMDCPTALHQLMLDCWVRDRNLRPKFSQIVNTLDKLIRNAASLKVTASAPSGMSQPLLDRTVPDYTTFTTVGDWLDAIKMGRYKESFVGAGFASFDLVAQMTAEDLLRIGVTLAGHQKKILCSIQDMRLQMNQTLPVQV
Consider B1, for which, in assay [1], the ECL signal is recorded as 10,540. The HTS signal in the assay with pEY is listed as 1,174.

B2: 3873932: IMAGE clone protein: MATK, megakaryocyte-associated tyrosine kinase (protein, UniProt P42679 1-507, looked up)
Megakaryocyte-associated …: MAGRGSLVSWRAFHGCDSAEELPRVSPRFLRAWHPPPVSARMPTRRWAPGTQCITKCEHTRPKPGELAFRKGDVVTILEACENKSWYRVKHHTSGQEGLLAAGALREREALSADPKLSLMPWFHGKISGQEAVQQLQPPEDGLFLVRESARHPGDYVLCVSFGRDVIHYRVLHRDGHLTIDEAVFFCNLMDMVEHYSKDKGAICTKLVRPKRKHGTKSAEEELARAGWLLNLQHLTLGAQIGEGEFGAVLQGEYLGQKVAVKNIKCDVTAQAFLDETAVMTKMQHENLVRLLGVILHQGLYIVMEHVSKGNLVNFLRTRGRALVNTAQLLQFSLHVAEGMEYLESKKLVHRDLAARNILVSEDLVAKVSDFGLAKAERKGLDSSRLPVKWTAPEALKHGKFTSKSDVWSFGVLLWEVFSYGRAPYPKMSLKEVSEAVEKGYRMEPPEGCPGPVHVLMSSCWEAEPARRPPFRKLAEKLARELRSAGAPASVSGQDADGSTSPRSQEP
With B2, in assay [1], the ECL signal is reported as 27,372. Moreover, in the assay with pEY, the HTS signal is recorded as 47,477.

B3: 4190326: IMAGE clone protein: Lyn, Yamaguchi sarcoma viral (vyes1) oncogene homolog (protein, UniProt P25911 2-512, looked up)
Tyrosine-protein kinase Lyn: GCIKSKRKDNLNDDEVDSKTQPVRNTDRTIYVRDPTSNKQQRPVPEFHLLPGQRFQTKDPEEQGDIVVALYPYDGIHPDDLSFKKGEKMKVLEEHGEWWKAKSLSSKREGFIPSNYVAKVNTLETEEWFFKDITRKDAERQLLAPGNSAGAFLIRESETLKGSFSLSVRDYDPMHGDVIKHYKIRSLDNGGYYISPRITFPCISDMIKHYQKQSDGLCRRLEKACISPKPQKPWDKDAWEIPRESIKLVKKLGAGQFGEVWMGYYNNSTKVAVKTLKPGTMSVQAFLEEANLMKTLQHDKLVRLYAVVTKEEPIYIITEFMAKGSLLDFLKSDEGGKVLLPKLIDFSAQIAEGMAYIERKNYIHRDLRAANVLVSESLMCKIADFGLARVIEDNEYTAREGAKFPIKWTAPEAINFGCFTIKSDVWSFGILLYEIVTYGKIPYPGRTNADVMSALSQGYRMPRMENCPDELYDIMKMCWKEKAEERPTFDYLQSVLDDFYTATEGQYQQQP
As to B3, in assay [1], the ECL signal is given as 599,680. Further, in the assay on pEY, the HTS signal was 427,178.

B4: 4013934: IMAGE clone protein: Ephb4, Eph receptor B4 (protein, UniProt P54761 16-987, looked up)
Ephrin type-B receptor 4: LEETLLNTKLETADLKWVTYPQAEGQWEELSGLDEEQHSVRTYEVCDMKRPGGQAHWLRTGWVPRRGAVHVYATIRFTMMECLSLPRASRSCKETFTVFYYESEADTATAHTPAWMENPYIKVDTVAAEHLTRKRPGAEATGKVNIKTLRLGPLSKAGFYLAFQDQGACMALLSLHLFYKKCSWLITNLTYFPETVPRELVVPVAGSCVANAVPTANPSPSLYCREDGQWAEQQVTGCSCAPGYEAAESNKVCRACGQGTFKPQIGDESCLPCPANSHSNNIGSPVCLCRIGYYRARSDPRSSPCTTPPSAPRSVVHHLNGSTLRLEWSAPLESGGREDLTYAVRCRECRPGGSCLPCGGDMTFDPGPRDLVEPWVAIRGLRPDVTYTFEVAALNGVSTLATGPPPFEPVNVTTDREVPPAVSDIRVTRSSPSSLILSWAIPRAPSGAVLDYEVKYHEKGAEGPSSVRFLKTSENRAELRGLKRGASYLVQVRARSEAGYGPFGQEHHSQTQLDESESWREQLALIAGTAVVGVVLVLVVVIIAVLCLRKQSNGREVEYSDKHGQYLIGHGTKVYIDPFTYEDPNEAVREFAKEIDVSYVKIEEVIGAGEFGEVCRGRLKAPGKKESCVAIKTLKGGYTERQRREFLSEASIMGQFEHPNIIRLEGVVTNSVPVMILTEFMENGALDSFLRLNDGQFTVIQLVGMLRGIASGMRYLAEMSYVHRDLAARNILVNSNLVCKVSDFGLSRFLEENSSDPTYTSSLGGKIPIRWTAPEAIAFRKFTSASDAWSYGIVMWEVMSFGERPYWDMSNQDVINAIEQDYRLPPPPDCPTSLHQLMLDCWQKDRNARPRFPQVVSALDKMIRNPASLKIVARENGGASHPLLDQRQPHYSAFGSVGEWLRAIKMGRYEESFAAAGFGSFEVVSQISAEDLLRIGVTLAGHQKKILASVQHMKSQAKPGAPGGTGGPAQQF
Regarding B4, the ECL signal in assay [1] is 28,275. Further, the HTS signal in the assay on pEY is 7,357.

B5: 3978518: IMAGE clone protein: Hck, hemopoietic cell kinase (protein, UniProt P08103 2-524, looked up)
Tyrosine-protein kinase HCK: GGRSSCEDPGCPRSEGRAPRMGCVKSRFLRDGSKASKTEPSANQKGPVYVPDPTSSSKLGPNNSNSMPPGFVEGSEDTIVVALYDYEAIHREDLSFQKGDQMVVLEEAGEWWKARSLATKKEGYIPSNYVARVNSLETEEWFFKGISRKDAERHLLAPGNMLGSFMIRDSETTKGSYSLSVRDFDPQHGDTVKHYKIRTLDSGGFYISPRSTFSSLQELVLHYKKGKDGLCQKLSVPCVSPKPQKPWEKDAWEIPRESLQMEKKLGAGQFGEVWMATYNKHTKVAVKTMKPGSMSVEAFLAEANLMKSLQHDKLVKLHAVVSQEPIFIVTEFMAKGSLLDFLKSEEGSKQPLPKLIDFSAQISEGMAFIEQRNYIHRDLRAANILVSASLVCKIADFGLARIIEDNEYTAREGAKFPIKWTAPEAINFGSFTIKSDVWSFGILLMEIVTYGRIPYPGMSNPEVIRALEHGYRMPRPDNCPEELYNIMIRCWKNRPEERPTFEYIQSVLDDFYTATESQYQQQP
Take B5: the ECL signal in assay [1] is 301,418. Also, the HTS signal with pEY is 184,534.

(Values after patent publication US7063946B2, “Methods, reagents, kits and apparatus for protein function analysis” (Meso Scale Technologies, LLC., priority 2001, dated 2006).)
